# Values quoted from earlier work as cited in publication PMC11558822, “Myc 9aaTAD activation domain binds to mediator of transcription with superior high affinity” (Molecular Medicine, 2024).
# pKd: −log10 of the molar value.
# Molecular target: CBP KIX (Homo sapiens) (UniProt Q92793)
# Experiment: ITC
# Chain of CBP KIX (Homo sapiens) (Q92793 584-669): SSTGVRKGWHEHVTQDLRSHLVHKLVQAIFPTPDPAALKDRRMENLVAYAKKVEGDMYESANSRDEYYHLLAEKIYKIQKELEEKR
substance,measurement,value
MLL 9aaTAD (from UniProt Q03164),pKd,5.85
